Assay results: article PMC8319303, “MacroGreen, a simple tool for detection of ADP-ribosylated proteins” (Communications Biology, 2021)
Substitutions are numbered along the chain they refer to. Numbers in names are those of the source.

B1: auto-MARylated PARP10 catalytic domain (domain or fragment, UniProt Q53GL7 819-1007, looked up)
chain: NLERLAENTGEFQEVVRAFYDTLDAARSSIRVVRVERVSHPLLQQQYELYRERLLQRCERRPVEQVLYHGTTAPAVPDICAHGFNRSFCGRNATVYGKGVYFARRASLSVQDRYSPPNADGHKAVFVARVLTGDYGQGRRGLRAPPLRGPGHVLLRYDSAVDCICQPSIFVIFHDTQALPTHLITCEHV
modifications: auto-mono-ADP-ribosylated (MARylated) on glutamic and aspartic acid, serine, lysine and arginine side chains; sites not given
notes: PARP10 catalytic domain, construct PARP10 819-1007; also called PARP10 819-1007; source: auto-modified with NAD+
B2: Af1521-c001, wild type Af1521 fused to GFP (other, Archaeoglobus fulgidus, UniProt O28751 1-192, looked up)
chain: MEVLFEAKVGDITLKLAQGDITQYPAKAIVNAANKRLEHGGGVAYAIAKACAGDAGLYTEISKKAMREQFGRDYIDHGEVVVTPAMNLEERGIKYVFHTVGPICSGMWSEELKEKLYKAFLGPLEKAEEMGVESIAFPAVSAGIYGCDLEKVVETFLEAVKNFKGSAVKEVALVIYDRKSAEVALKVFERSL
notes: Archaeoglobus fulgidus macrodomain protein Af1521, full length, wild type; pNIC28 derived vector; also called Af1521-GFP; wild type Af1521-GFP fusion; source: E. coli BL21(DE3)T1R pRARE2, purified (IMAC, SEC); not shown: eGFP, C-terminal, kept
B3: MacroGreen (Af1521-c007), Af1521 K35E,G42E,I144R,Y145R fused to GFP (other, Archaeoglobus fulgidus, UniProt O28751 1-192, looked up)
chain: B2 chain with K35E, G42E, I144R, Y145R
notes: Archaeoglobus fulgidus macrodomain protein Af1521, full length, with K35E, G42E, I144R, Y145R; Synthetic codon-optimised cDNA in a pNIC28 derived vector; also called GFP-fusion quadruple mutant; source: E. coli BL21(DE3)T1R pRARE2, purified (IMAC, SEC); not shown: eGFP, C-terminal, kept

What was measured:
[1] = biological target: B3; assay: SPR; MacroGreen covalently immobilised, auto-MARylated PARP10 catalytic domain flowed over; apparent KD from the kinetics of binding and unbinding; conditions: both partners purified
[2] = biological target: T1, PARylated PARP1 (auto-modified catalytic domain construct) (UniProt P09874 662-1011, auto-poly-ADP-ribosylated (PARylated) predominantly on carboxylic acid side chains; sites not given); assay: far-Western, overlay or dot blot; overlay in multiwell plates: MAR- or PARylated protein adsorbed to protein binding 96-well plates (MaxiSorp), blocked with 1% BSA, overlaid with the macrodomain-GFP fusion (1 µM in Fig. 2) in TBST pH 7.5 for 5 min at room temperature, washed, GFP fluorescence read; conditions: both partners purified
T1 construct: PARP1 catalytic domain construct, PARP1 662-1011; also called PARP1 662-1011; source: auto-modified with 1 mM NAD+
T1 sequence (P09874 662-1011): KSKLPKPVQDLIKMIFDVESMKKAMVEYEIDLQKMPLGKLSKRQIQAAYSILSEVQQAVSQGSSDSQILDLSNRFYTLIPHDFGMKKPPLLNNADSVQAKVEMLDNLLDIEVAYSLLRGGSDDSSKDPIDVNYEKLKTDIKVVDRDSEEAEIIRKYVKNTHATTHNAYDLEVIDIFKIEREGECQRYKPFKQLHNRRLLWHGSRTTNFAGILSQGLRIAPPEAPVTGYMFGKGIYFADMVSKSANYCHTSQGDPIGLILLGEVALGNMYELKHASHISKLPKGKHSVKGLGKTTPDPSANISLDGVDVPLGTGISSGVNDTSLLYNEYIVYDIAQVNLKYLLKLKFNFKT

B1
Kd [1]: 0.03 µM
stoichiometry N [1]: 1

B2
binding result [2]: binds

B3
binding result [2]: binds
